Results on 4 molecules are retold here after patent publication US20220098307A1 (WUHAN YZY BIOPHARMA, published 2022).

Positions count from the first letter of the chain named. In names and notes the source's numbering stands.

B1: CD38-M1-G2-2 (bispecific antibody, human IgG1, kappa)
chain: QVQLVESGGGVVQPGRSLRLSCAASGFTFSTYAMNWVRQAPGKGLEWVARIRSKYNNYATYYADSVKDRFTISRDDSKNTLYLQMNSLRAEDTAVYYCARHGNFGNSYVSWFAYWGQGTLVTVSSGGGGSGGGGSGGGGSQTVVTQEPSLTVSPGGTVTLTCRSSTGAVTTSNYANWVQQKPGQAPRGLIGGTNKRAPGVPARFSGSLLGGKAALTLSGVQPEDEAEYYCALWYSNLWVFGGGTKVEIKGRGRGSDKTHTCPPCPAPPVAGPSVFLFPPKPKDTLMISRTPEVTCVVVDVSHEDPEVQFNWYVDGVEVHNAKTKPREEQFNSTFRVVSVLTVVHQDWLNGKEYKCKVSNKGLPAPIEKTISKTKGQPREPQVCTLPPSRDELTKNQVSLSCAVKGFYPSDIAVEWESNGQPENNYKTTPPVLDSDGSFFLVSKLTVDKSRWQQGNVFSCSVMHEALHNHYTQKSLSLSPGK
heavy: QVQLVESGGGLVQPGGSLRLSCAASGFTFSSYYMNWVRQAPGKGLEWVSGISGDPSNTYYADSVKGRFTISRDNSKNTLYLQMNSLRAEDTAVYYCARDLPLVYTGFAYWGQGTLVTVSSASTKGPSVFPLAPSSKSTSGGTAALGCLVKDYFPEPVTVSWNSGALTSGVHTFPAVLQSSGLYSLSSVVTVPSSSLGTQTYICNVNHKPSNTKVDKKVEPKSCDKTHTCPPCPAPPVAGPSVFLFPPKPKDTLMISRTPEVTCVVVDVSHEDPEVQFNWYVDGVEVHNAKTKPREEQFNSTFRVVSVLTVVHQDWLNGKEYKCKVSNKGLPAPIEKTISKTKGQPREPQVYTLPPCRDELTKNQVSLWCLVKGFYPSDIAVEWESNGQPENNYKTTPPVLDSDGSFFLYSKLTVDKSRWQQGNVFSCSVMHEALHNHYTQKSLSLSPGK
light: DIELTQPPSVSVAPGQTARISCSGDNLRHYYVYWYQQKPGQAPVLVIYGDSKRPSGIPERFSGSNSGNTATLTISGTQAEDEADYYCQTYTGGASLVFGGGTKLTVLGQRTVAAPSVFIFPPSDEQLKSGTASVVCLLNNFYPREAKVQWKVDNALQSGNSQESVTEQDSKDSTYSLSSTLTLSKADYEKHKVYACEVTHQGLSSPVTKSFNRGEC
notes: structure 1; CD38 (MOR) x CD3; CH2 G2CH2
B2: CD38-M1-SG2-2 (bispecific antibody, human IgG1, kappa)
chain: B1 chain with C264S
heavy: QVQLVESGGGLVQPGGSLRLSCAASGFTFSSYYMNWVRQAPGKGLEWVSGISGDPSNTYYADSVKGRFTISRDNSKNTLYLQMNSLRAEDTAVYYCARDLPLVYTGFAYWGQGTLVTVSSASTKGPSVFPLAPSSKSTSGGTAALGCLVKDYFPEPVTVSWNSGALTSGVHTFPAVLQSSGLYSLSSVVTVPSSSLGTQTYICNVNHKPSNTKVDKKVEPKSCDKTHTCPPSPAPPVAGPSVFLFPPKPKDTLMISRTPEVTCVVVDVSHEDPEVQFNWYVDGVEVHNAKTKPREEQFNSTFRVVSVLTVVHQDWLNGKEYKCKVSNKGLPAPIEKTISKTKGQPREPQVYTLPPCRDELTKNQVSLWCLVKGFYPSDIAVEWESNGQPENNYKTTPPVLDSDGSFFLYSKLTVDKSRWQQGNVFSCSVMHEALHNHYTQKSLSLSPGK
light: B1 light
notes: structure 1; CD38 (MOR) x CD3; CH2 SG2CH2
B3: CD38-M1-G2D-1 (bispecific antibody, human IgG1, kappa)
chain: B1 chain with D304A
heavy: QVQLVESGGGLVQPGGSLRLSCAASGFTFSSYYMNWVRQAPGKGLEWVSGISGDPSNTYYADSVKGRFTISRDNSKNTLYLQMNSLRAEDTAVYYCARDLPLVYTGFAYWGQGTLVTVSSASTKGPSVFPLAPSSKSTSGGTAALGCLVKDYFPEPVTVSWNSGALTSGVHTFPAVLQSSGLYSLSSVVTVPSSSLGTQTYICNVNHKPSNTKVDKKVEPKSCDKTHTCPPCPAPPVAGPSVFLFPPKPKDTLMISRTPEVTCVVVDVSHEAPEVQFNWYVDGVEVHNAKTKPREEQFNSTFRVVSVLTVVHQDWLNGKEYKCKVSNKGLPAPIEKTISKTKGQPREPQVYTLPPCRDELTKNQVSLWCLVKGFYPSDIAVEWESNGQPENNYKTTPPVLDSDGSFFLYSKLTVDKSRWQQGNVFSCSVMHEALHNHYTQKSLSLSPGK
light: B1 light
notes: structure 1; CD38 (MOR) x CD3; CH2 G2DCH2
B4: CD38-M1-FES-3 (bispecific antibody)
chain: not shown
heavy: not shown
light: DIELTQPPSVSVAPGQTARISCSGDNLRHYYVYWYQQKPGQAPVLVIYGDSKRPSGIPERFSGSNSGNTATLTISGTQAEDEADYYCQTYTGGASLVFGGGTKLTVLGQGQPKAAPSVTLFPPSSEELQANKATLVCLISDFYPGAVTVAWKADSSPVKAGVETTTPSKQSNNKYAASSYLSLTPEQWKSHRSYSCQVTHEGSTVEKTVAPTECS
notes: structure 1; CD38 (MOR) x CD3 (I2C); CH2 FES; CL is Lc3

By EC50 is commonly meant the midpoint of the concentration-response curve.

The target of one experiment is T1, Monkey CD3 (monkey).
T1 construct: whole, on cells; also called CD3 of monkey CD3 positive T cells
In words: flow cytometry, monkey T cells. (A flow cytometer gives signals particle by particle.)
Consider B1, for which the midpoint of the response, the EC50, lay at 491 nM.

Regarding B2, the concentration for a half-maximal effect (EC50) amounted to 461 nM.

In turn, B3 had an EC50 of 420 nM.

B4 had an EC50 of 34 nM.

In another experiment the target is T2, Human CD3ε (human, UniProt P07766 23-126).
T2 construct: CD3 on T cells isolated from human whole blood
In words: flow cytometry, human T cells. In a few lines:
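Cells expressing the target antigen (CD38+ MM.1S or RPMI 8226 for CD38; isolated T cells for CD3) were plated at 2×10⁵ per well in 1% FBS-PBS on ice. Antibody was titrated 3-fold over 11 points from 3000 nM and incubated 2 h at 4° C with shaking, followed by PE anti-human IgG Fc.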
B1: the EC50 came out at 478 nM.

B2 yielded an EC50 of 437 nM.

In turn, B3 came in with an EC50 of 405 nM.

The target in a further experiment is Human CD38 (human, UniProt P28907 43-300). In words: flow cytometry, MM.1S or RPMI 8226 cells. From the text:
1) Cell preparation: T cells isolated from CD3-positive human whole blood were used for a CD3 end affinity detection of multifunctional antibody molecule; positive tumor cells of corresponding antigen were used for detecting affinity of tumor antigen; for example, CD38-positive MM. 1S cells (purchased from the Cell Resource Center of Shanghai Institutes for Biological Sciences, Chinese Academy of Sciences) or RPMI 8226 cells (purchased from the Cell Resource Center of Shanghai Institutes for Biological Sciences, Chinese Academy of Sciences) were used for CD38 antigen detection, and PD-L1 positive H358 cells (purchased from the Cell Resource Center of Shanghai Institutes for Biological Sciences, Chinese Academy of Sciences) were used for PD-L1 antigen detection, and so on. The cells were resuspended with 1% FBS-PBS, adjusted to a density of 4×10⁶/ml, and 50 μl of cells were taken from each well, and then plated at 2×10⁵ per well. Cell plating was operated on ice
2) Addition of the antibody: according to the experimental design, the antibody was diluted gradually, and dilution of antibody was operated on ice. For example, the initial concentration of antibody for dilution was 3000 nM, and the antibody was diluted by 3 times with 11 concentration gradients. The diluted antibody was added to a cell well at 50 μl per well, mixed well, and shaked and incubated at 4° C. 1100 rpm/min for 2 h; after washing, the cells were resuspend in 1% FBS-PBS, and a diluted secondary antibody PE anti-human IgG FC (Biolegend, 409304) was added with a final concentration of 8 ug/ml and a volume of 50 μl/well. At the same time, a well only added with cells and secondary antibody was set as a control, the components were mixed well, and incubated under shaking at 1100 rpm/min at 4° C. for 1 h;
5) Data analysis: the data was analyzed by a flow analysis software FlowJo 7.6 thereby obtaining an average fluorescence intensity of the specific antibody concentration, plotted by a Graphpad Prism 5 with the antibody concentration (nM) as an abscissa and the average fluorescence intensity as an ordinate; the EC50 value was calculated by the method of One site—Specific binding, and the EC50 value indicated the cell affinity of the antibody to the corresponding target antigen.
In turn, B1 had an EC50 of 104 nM.

Molecule B2 had an EC50 of 106 nM.

With B3, the midpoint of the response, the EC50, lay at 100 nM.

In turn, B4 came in with an EC50 of 11.1 nM.
